Laboratory results from US20130209454A1.

Legend:
Assay in all cases: cell-based or functional assay
[1] = biological target: HIV-1 Env of strain 6535.3 (HIV-1)
[2] = biological target: HIV-1 strain Ce703010054_2A2 envelope (gp120) (HIV-1)
[3] = biological target: HIV-1 Env of strain X1254_c3 (HIV-1)
[4] = biological target: HIV-1 Env of strain ZM249M.PL1 (HIV-1)
[5] = biological target: HIV-1 strain AC10.0.29 envelope (gp120) (HIV-1)
[6] = biological target: HIV-1 Env of strain T255-34 (HIV-1)
[7] = biological target: HIV-1 Env of strain Ce703010054_2A2 (HIV-1)
[8] = biological target: HIV-1 strain WEAU_d15_410_787 envelope (gp120) (HIV-1)
[9] = biological target: HIV-1 Env of strain Q769.d22 (HIV-1)
[10] = biological target: HIV-1 strain WITO4160.33 envelope (gp120) (HIV-1)
[11] = biological target: HIV-1 Env of strain 620345.c01 (HIV-1)
[12] = biological target: HIV-1 strain 1056_10_TA11_1826 envelope (gp120) (HIV-1)
[13] = biological target: HIV-1 strain C2101.c01 envelope (gp120) (HIV-1)
[14] = biological target: HIV-1 strain THRO4156.18 envelope (gp120) (HIV-1)
[15] = biological target: HIV-1 strain 620345.c01 envelope (gp120) (HIV-1)
[16] = biological target: HIV-1 strain 62357_14_D3_4589 envelope (gp120) (HIV-1)
[17] = biological target: HIV-1 strain X1254_c3 envelope (gp120) (HIV-1)
[18] = biological target: HIV-1 strain ZM53M.PB12 envelope (gp120) (HIV-1)
[19] = biological target: HIV-1 Env of strain Ce1176_A3 (HIV-1)
[20] = biological target: HIV-1 Env of strain 0815.v3.c3 (HIV-1)
[21] = biological target: HIV-1 strain ZM247v1(Rev-) envelope (gp120) (HIV-1)
[22] = biological target: HIV-1 strain Du156.12 envelope (gp120) (HIV-1)
[23] = biological target: HIV-1 Env of strain T251-18 (HIV-1)
[24] = biological target: HIV-1 strain CNE30 envelope (gp120) (HIV-1)
[25] = biological target: HIV-1 Env of strain 3415.v1.c1 (HIV-1)
[26] = biological target: HIV-1 Env of strain 1006_11_C3_1601 (HIV-1)
[27] = biological target: HIV-1 strain TRO.11 envelope (gp120) (HIV-1)
[28] = biological target: HIV-1 strain Ce1176_A3 envelope (gp120) (HIV-1)
[29] = biological target: HIV-1 Env of strain REJO4541.67 (HIV-1)
[30] = biological target: HIV-1 strain Ce0682_E4 envelope (gp120) (HIV-1)
[31] = biological target: HIV-1 Env of strain T278-50 (HIV-1)
[32] = biological target: HIV-1 strain C1080.c03 envelope (gp120) (HIV-1)
[33] = biological target: HIV-1 Env of strain 231966.c02 (HIV-1)
[34] = biological target: HIV-1 strain CNE58 envelope (gp120) (HIV-1)
[35] = biological target: HIV-1 strain 231966.c02 envelope (gp120) (HIV-1)
[36] = biological target: HIV-1 strain Ce2010_F5 envelope (gp120) (HIV-1)
[37] = biological target: HIV-1 strain CNE20 envelope (gp120) (HIV-1)
[38] = biological target: HIV-1 Env of strain 0330.v4.c3 (HIV-1)
[39] = biological target: HIV-1 Env of strain QH0692.42 (HIV-1)
[40] = biological target: HIV-1 Env of strain Q842.d12 (HIV-1)
[41] = biological target: HIV-1 strain R2184.04 envelope (gp120) (HIV-1)
[42] = biological target: HIV-1 strain ZM135M.PL10a envelope (gp120) (HIV-1)
[43] = biological target: HIV-1 Env of strain 1054_07_TC4_1499 (HIV-1)
[44] = biological target: HIV-1 Env of strain 6480.v4.c25 (HIV-1)
[45] = biological target: HIV-1 Env of strain Q461.e2 (HIV-1)
[46] = biological target: HIV-1 Env of strain R1166.c01 (HIV-1)
[47] = biological target: HIV-1 strain PVO.4 envelope (gp120) (HIV-1)
[48] = biological target: HIV-1 strain 3415.v1.c1 envelope (gp120) (HIV-1)
[49] = biological target: HIV-1 strain Du422.1 envelope (gp120) (HIV-1)
[50] = biological target: HIV-1 Env of strain CAP210.2.00.E8 (HIV-1)

B1: NIH45-46^G54Y IgG (antibody, name in Kabat numbering, V domains shown)
VH: QVRLSQSGGQMKKPGESMRLSCRASGYEFLNCPINWIRLAPGRRPEWMGWLKPRYGAVNYARKFQGRVTMTRDVYSDTAFLELRSLTSDDTAVYFCTRGKYCTARDYYNWDFEHWGRGAPVTVSS
VL: EIVLTQSPATLSLSPGETAIISCRTSQSGSLAWYQQRPGQAPRLVIYSGSTRAAGIPDRFSGSRWGADYNLSISNLESGDFGVYYCQQYEFFGQGTKVQVDI
[1]
  neutralization IC50: 0.08 µg/mL
[2]
  neutralization IC80: 0.07 µg/mL
[3]
  neutralization IC50: 0.013 µg/mL
[4]
  neutralization IC50: 0.003 µg/mL
[5]
  neutralization IC80: 0.9 µg/mL
[6]
  neutralization IC50: 0.04 µg/mL
[7]
  neutralization IC50: 0.022 µg/mL
[8]
  neutralization IC80: 0.008 µg/mL
[9]
  neutralization IC50: 0.007 µg/mL
[10]
  neutralization IC80: 0.09 µg/mL
[11]
  neutralization IC50: > 50 µg/mL
[12]
  neutralization IC80: 0.189 µg/mL
[13]
  neutralization IC80: 0.27 µg/mL
[14]
  neutralization IC80: 2.14 µg/mL
[15]
  neutralization IC80: > 50 µg/mL
[16]
  neutralization IC80: 0.09 µg/mL
[17]
  neutralization IC80: 0.041 µg/mL
[18]
  neutralization IC80: 0.22 µg/mL
[19]
  neutralization IC50: 0.21 µg/mL
[20]
  neutralization IC50: < 0.001 µg/mL
[21]
  neutralization IC80: 3.57 µg/mL
[22]
  neutralization IC80: 0.026 µg/mL
[23]
  neutralization IC50: 0.35 µg/mL
[24]
  neutralization IC80: 0.263 µg/mL
[25]
  neutralization IC50: < 0.001 µg/mL
[26]
  neutralization IC50: 0.005 µg/mL
[27]
  neutralization IC80: 0.22 µg/mL
[28]
  neutralization IC80: 0.58 µg/mL
[29]
  neutralization IC50: 0.007 µg/mL
[30]
  neutralization IC80: 0.065 µg/mL
[31]
  neutralization IC50: > 50 µg/mL
[32]
  neutralization IC80: 1.83 µg/mL
[33]
  neutralization IC50: 0.06 µg/mL
[34]
  neutralization IC80: 0.11 µg/mL
[35]
  neutralization IC80: 0.23 µg/mL
[36]
  neutralization IC80: 0.235 µg/mL
[37]
  neutralization IC80: 2.4 µg/mL
[38]
  neutralization IC50: 0.03 µg/mL
[39]
  neutralization IC50: 0.52 µg/mL
[40]
  neutralization IC50: 0.015 µg/mL
[41]
  neutralization IC80: 0.045 µg/mL
[42]
  neutralization IC80: 0.3 µg/mL
[43]
  neutralization IC50: 0.064 µg/mL
[44]
  neutralization IC50: 0.018 µg/mL
[45]
  neutralization IC50: 0.023 µg/mL
[46]
  neutralization IC50: 0.24 µg/mL
[47]
  neutralization IC80: 0.18 µg/mL
[48]
  neutralization IC80: 0.037 µg/mL
[49]
  neutralization IC80: > 50 µg/mL

B2: NIH45-46^G54W(HC), S28Y(LC) (antibody, V domains shown)
VH: QVRLSQSGGQMKKPGESMRLSCRASGYEFLNCPINWIRLAPGRRPEWMGWLKPRWGAVNYARKFQGRVTMTRDVYSDTAFLELRSLTSDDTAVYFCTRGKYCTARDYYNWDFEHWGRGAPVTVSS
VL: EIVLTQSPATLSLSPGETAIISCRTSQYGSLAWYQQRPGQAPRLVIYSGSTRAAGIPDRFSGSRWGADYNLSISNLESGDFGVYYCQQYEFFGQGTKVQVDI
[1]
  IC50, pseudovirus neutralization: 0.015 µg/mL
[3]
  IC50, pseudovirus neutralization: 0.006 µg/mL
[4]
  IC50, pseudovirus neutralization: 0.001 µg/mL
[6]
  IC50, pseudovirus neutralization: 0.013 µg/mL
[7]
  IC50, pseudovirus neutralization: 0.016 µg/mL
[9]
  IC50, pseudovirus neutralization: 0.003 µg/mL
[11]
  IC50, pseudovirus neutralization: > 50 µg/mL
[50]
  IC50, pseudovirus neutralization: 1.95 µg/mL
[19]
  IC50, pseudovirus neutralization: 0.172 µg/mL
[20]
  IC50, pseudovirus neutralization: 0.001 µg/mL
[23]
  IC50, pseudovirus neutralization: 0.336 µg/mL
[25]
  IC50, pseudovirus neutralization: 0.013 µg/mL
[26]
  IC50, pseudovirus neutralization: 0.009 µg/mL
[29]
  IC50, pseudovirus neutralization: 0.001 µg/mL
[31]
  IC50, pseudovirus neutralization: > 50 µg/mL
[33]
  IC50, pseudovirus neutralization: 0.012 µg/mL
[39]
  IC50, pseudovirus neutralization: 0.216 µg/mL
[40]
  IC50, pseudovirus neutralization: 0.001 µg/mL
[43]
  IC50, pseudovirus neutralization: 0.104 µg/mL
[44]
  IC50, pseudovirus neutralization: 0.016 µg/mL
[45]
  IC50, pseudovirus neutralization: 0.034 µg/mL
[46]
  IC50, pseudovirus neutralization: 0.278 µg/mL
